Experimental data reported in patent US20230250157A1 (published 2023).

Legend:
Assay in all cases: ELISA
[1] = target: SARS-CoV-2 Beta RBD (SARS-CoV-2 Beta)
[2] = target: SARS-CoV-2 Delta RBD (SARS-CoV-2 Delta)
[3] = target: SARS-CoV-2 Omicron BA.1 RBD (SARS-CoV-2 Omicron BA.1)
[4] = target: SARS-CoV-2 Omicron BA.2 RBD (SARS-CoV-2 Omicron BA.2)

Measured: EC50

B1: M8a-29 (antibody, V domains shown)
VH: EVQLQQSVAELVRPGASVKLSCTASGFNIKNTYMHWVKQRPEQGLEWIGRIDPSIDHTRYAPKFQGKAVITAFTSSNTAYLQLSSLTSEDTAIYYCAREGGGNYPYYYAIDYWGQGTSVTVSS
VL: DIVMTQAAFSNPVTLGTSASISCRSTKSLLHSNGITYLYWYLQKPGQSPQLLIYQMSNLASGVPDRFSSSGSGTDFTLRISRVEAEDVGVYYCAQNLELPYTFGGGTKLEIK
> 10 µg/mL: all assays above

B2: M8a-25 (antibody, V domains shown)
VH: EVQLQQSVAELVRPGASVKLSCTASGFNIKNTYMHWVKQRPEQGLEWIGRIDPSIDHTRYAPKFQGKAVITAFTSSNTAYLQLSSLTSEDTAIYYCAREGGGNYPYYYAIDYWGQGTSVTVSS
VL: DIQMTQSSSSFSVSLGDRVTITCKASEDIYIRLAWYQQRPGNAPRLLISNAISLETGVPSRFSGSGFGKDHTLSITSLQTEDVATYYCQQYWSTPWTFGGGTKLEIK
> 10 µg/mL: all assays above

B3: M8a-30 (antibody, V domains shown)
VH: QVHLQQSGPELVKPGASVKISCKASGYGFSSSWMNWVKQRPGKGLEWIGRIYPGDGDTNYNDKFQGKATLTADRSSSTAYMHLTSLTSADSAVYFCARSLLYSFDYWGQGTTLTVSS
VL: DVVVTQTPLSLPVSFGDQVSISCRSSQSLAGSYGHTYLSWYLHKSGQSPQLLIYGISNRFSGVPDRFSGSGSGTDFTLKISTIKPEDLGMYYCLQGTHQPLTFGAGTKLELK
> 10 µg/mL: [1] | [3] | [4]

B4: M8a-15 (antibody, V domains shown)
VH: QVQLQQSGPELARPGASVKLSCRASGYTVTSFGLSWMKQRTGQGLEWIGEIYPTSKNTYYNDKFRTKATLTADKSSSTAYMELRSLTSEDSAVYFCVLYDYFDYWGQGTTLTVSS
VL: QIVLTQSPAIMSASPGEKVTISCSASSSVSYMYWYQQKTGSSPKPWIYRTSNLASGVPVRFSGSGSGTSYSLTISSMEAEDAATYYCQQYQSYPRTFGGGTKLEIK
> 10 µg/mL: all assays above

B5: M8a-11 (antibody, V domains shown)
VH: EVQLQQSGPELVKPGASVKIPCKASGYTFTDYNMDWVKQSHEKSLEWIGEIDPNNGDTIYNQKFKGKASLTVDKSSSTAYMELRSLTSEDTAVYYCAKRGYYGSSLWWYFDVWGTGTTVTVSS
VL: DIQMTQSSSSFSVSLGDRVTITCKASEDIYIRLAWYQQRPGNAPRLLISNAISLETGVPSRFSGSGSGKDYTLSITSLQTEDVATYYCQQYWSTPWTFGGGTKLEIK
> 10 µg/mL: all assays above

B6: M8a-7 (antibody, V domains shown)
VH: QAYLQQSGAEMVRPGASVKMSCKASGYTFNNYNMHWVKQTPSQGLEWIGGFYPGNDDTAYSQKFKGKATLTVDKSSSTAFMHLSSLTSEDSAVYFCARSLGRYYAMDYWGQGTSVTVSS
VL: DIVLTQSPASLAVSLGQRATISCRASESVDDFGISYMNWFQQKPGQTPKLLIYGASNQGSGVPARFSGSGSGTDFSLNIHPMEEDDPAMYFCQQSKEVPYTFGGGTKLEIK
> 10 µg/mL: all assays above
